# According to patent US20170335314, “Methods For Using Nucleic Acid Aptamers For Directed Templated Assembly” (TriBiotica LLC, published 2017):
# B1: aptamer 229 (10AptL3) (ssDNA)
# DNA: CATCTCCACCTCCATAACCCACGGACGGGCGTCTAGAGAAGTAGGCTGAAATATCGTGGCGAGAACGAGCTGTGTCCTGAAGAAA
# B2: binary aptamer 229-228 (ligated, 170 nt) (ssDNA)
# DNA: CATCTCCACCTCCATAACCCACGGACGGGCGTCTAGAGAAGTAGGCTGAAATATCGTGGCGAGAACGAGCTGTGTCCTGAAGAAAGCAAAGACATCTGGACACGCCACTAAGTGGAGGTGATCTGTACTTCATTTATGAGATCGCGGCGAGGAGAAGGAGACTTAGAGGC
# B3: aptamer 228 (10AptR1) (ssDNA)
# DNA: GCAAAGACATCTGGACACGCCACTAAGTGGAGGTGATCTGTACTTCATTTATGAGATCGCGGCGAGGAGAAGGAGACTTAGAGGC
# Tests used:
# [1] = target: T1, streptavidin (magnetic beads) (UniProt P22629 P22629:25-183); test: pulldown; beads without bFab; conditions: tags: immobilised on magnetic beads; chain copies: 4
# T1 sequence (P22629 25-183, one chain of several): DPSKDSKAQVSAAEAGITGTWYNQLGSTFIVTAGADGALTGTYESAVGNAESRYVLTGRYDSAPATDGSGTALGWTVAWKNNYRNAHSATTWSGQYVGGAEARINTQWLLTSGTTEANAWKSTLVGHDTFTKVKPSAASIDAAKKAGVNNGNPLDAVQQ
# Protocol: Aptamers were incubated with bFab (2.5-fold molar excess), then bound to SAMBs. Supernatants were taken, and the SAMBs washed 3 times. Bound material was eluted with 0.1 M NaOH, and then precipitated, washed, dried, and reconstituted before loading samples on a denaturing acrylamide gel. […] M is a size marker (top band 60 bases; aptamer bands 85 bases).
# To assess binding of 10th-cycle singlet aptamers to the selective agent (the Fab target), direct binding assays were carried out. Here, single-stranded aptamer preparations (self-annealed as usual) were incubated with or without biotinylated Fab fragments in PBSM, followed by adsorption onto streptavidin magnetic beads. After this incubation period, the beads were magnetically separated, and the supernatants retained. After 3 washes of the beads, the bound material was eluted by means of 2×20 second incubations with 100 μl of 0.1 M NaOH, with the eluates immediately precipitated with 0.3 M sodium acetate and 3 volumes of ethanol. Pellets were washed with 70% ethanol, and dried. After reconstitution in 5 μl of TE, 1 μl samples were denatured in formamide and run on 10% urea (denaturing) gels. […]
# [2] = target: T1, streptavidin (magnetic beads); test: pulldown; beads without bFab; conditions: tags: immobilised on magnetic beads; chain copies: 4; remark: listed apart in the source
# Protocol: Pellets were washed with 70% ethanol, and dried. After reconstitution in 5 μl of TE, 1 μl samples were denatured in formamide and run on 10% urea (denaturing) gels. Results of such an experiment with the candidate singlet aptamers 228/10AptR1 (see, FIG. 27 and FIG. 29) and 229/10AptL3 (see, FIG. 29) and a specific arbitrary unselected control Right-aptamer (#136; sequence corresponds to: GCAAAGACATCTGGA […] AAGGAGACTTAGAGGC (SEQ ID NO:6); where underlining indicates the 40-mer aptamer tract; remaining sequences are primer sites) are shown in FIG. 30. The supernatants from the 228/10AptR1 and 229/10AptL3 binding (but not #136) were depleted only in the presence of biotinylated Fab. Moreover, the eluted material from biotinylated Fab on the streptavidin magnetic beads was highly enriched for aptamer bands only for 228/10AptR1 and 229/10AptL3 (see, FIG. 30).
# Despite successful in situ assembly of binary aptamers upon the target to which they were bound (as in Example 1), it could not be assumed that binary aptamers formed in solution would be capable of binding the same targets. This was assessed using the same aptamers as used in direct binding tests (Example 3; 228/10AptR1 and 229/10AptL3), but where the aptamers were initially ligated together by means of the same splint oligonucleotide as used in Example 1. […]
Binder,binding result [1],binding result [2]
B1,no binding,
B2,,no binding
B3,no binding,
